From publication PMC9912261

Legend:
[1] = system: Lys1 (position 1, -----K-----); experiment: NMR; conditions: ambient (SI general details say 1H NMR spectra were recorded at ambient temperature); none stated; pH adjusted with HCl/NaOH; free small peptide derivative in solution
[2] = system: Lys1 (position 1, -----KG----); experiment: NMR; conditions: ambient (SI general details say 1H NMR spectra were recorded at ambient temperature); none stated; pH adjusted with HCl/NaOH; free small peptide derivative in solution

Substance | pKa [1] | pKa [2]
Ac-Lys-OH (N-alpha-acetyl-lysine) (synthetic) | approximately 10.8 | –
Ac-Lys-CN (N-acetyl-lysine nitrile) (synthetic) | approximately 10.4 | –
Ac-Lys-SH (N-acetyl-lysine thioacid) (synthetic) | approximately 10.8 | –
Ac-Lys-Gly-SH (N-acetyl-lysyl-glycine thioacid) (synthetic) | – | approximately 10.8
